Reference: paper doi:10.1101/2024.08.08.607148 (bioRxiv, 2024)

Tests used:
Assay in all cases: ELISA
[1] = target: T1, variable region of RIFIN#1 (PF3D7_1254800, 165-274 aa) (P. falciparum, UniProt Q8I4N9)
[2] = target: T1, variable region of RIFIN#1 …; remark: listed apart in the source
[3] = target: extracellular domain (ECD) of human LILRB1 (human, UniProt Q8NHL6 24-461, biotin (NHS-pEG12-biotin) in the competition ELISA)
Chain of extracellular domain (ECD) of human LILRB1 (Q8NHL6 24-461): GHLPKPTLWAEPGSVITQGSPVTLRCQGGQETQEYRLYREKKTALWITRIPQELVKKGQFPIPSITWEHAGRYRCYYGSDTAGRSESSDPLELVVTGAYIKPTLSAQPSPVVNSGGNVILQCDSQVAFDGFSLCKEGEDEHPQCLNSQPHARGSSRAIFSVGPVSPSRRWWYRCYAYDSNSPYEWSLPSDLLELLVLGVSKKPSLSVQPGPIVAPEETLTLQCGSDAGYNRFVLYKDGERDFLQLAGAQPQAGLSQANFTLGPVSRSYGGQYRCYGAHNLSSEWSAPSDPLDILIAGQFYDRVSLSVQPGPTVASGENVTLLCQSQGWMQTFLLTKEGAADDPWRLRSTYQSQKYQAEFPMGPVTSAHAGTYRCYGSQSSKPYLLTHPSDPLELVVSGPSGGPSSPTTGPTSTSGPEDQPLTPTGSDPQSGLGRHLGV

Row | Binder | IC50 [1] | Kd [2] | Kd [3]
1 | D1D2.v-IgG (LILRB1 D1D2.v-containing antibody on the MDB1 scaffold) (antibody, V domains shown) VH: QITLKESGPTLVERTQTLTLTCTFSGFSLTTDGLGVGWIRQPPGKALEWLALIYYDDVRRYRPSLKSRLTITKDTSKNRVVLTVTDMDPVDAGTYFCVHASLFNLGSRNVYFRYWGQGTLVSVSS VL: SYDLTQPPSVSVSPGQTARITCSGDSLARQFASWYQQKPGQSPVLLIYKNIERLSAIPERFSGSTSGTSVTLTISGVQAEDEADYFCQSADDSGSYSLFGTGTRVSVL | 20 nM | 6 nM | 
2 | variable region of RIFIN#1 (PF3D7_1254800, 165-274 aa) (domain or fragment, P. falciparum, UniProt Q8I4N9 165-274, looked up) NYETINAFIAKTIEELEGIPGITKLFGAKISQFVTPAVFRKPMSLVETILSEKKKLCLCAANKNELLCRGMNPNVPETLPKKIEVAVNEVLSSVNDTWATATTPTTFFTN |  |  | ~650 nM
